Columns and labels:
Test in all cases: cell-based or functional assay
rabbit IL-8 = target: T1, rabbit IL-8 (rabbit, UniProt P19874 23-101, limits assumed)
T1 sequence (looked up): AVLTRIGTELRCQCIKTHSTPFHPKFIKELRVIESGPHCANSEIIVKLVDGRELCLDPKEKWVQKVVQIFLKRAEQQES

human monomeric IL-8 = human monomeric IL-8 (human)
[1] = target: T2, recombinant human IL-8, (ser-IL-8)72 (human, UniProt P10145 28-99)
T2 sequence (looked up): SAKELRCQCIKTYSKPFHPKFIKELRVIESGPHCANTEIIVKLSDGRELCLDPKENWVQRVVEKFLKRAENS

rhesus IL-8 = target: T3, rhesus IL-8 (rhesus, UniProt P67813 23-101, limits assumed)
T3 sequence (looked up): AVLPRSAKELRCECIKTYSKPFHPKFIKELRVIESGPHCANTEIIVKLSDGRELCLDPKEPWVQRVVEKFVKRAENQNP

B1: 6G4V11N35A F(ab')2 (GCN4 leucine zipper construct) (other)
light: DIQMTQSPSSLSASVGDRVTITCRSSQSLVHGIGATYLHWYQQKPGKAPKLLIYKVSNRFSGVPSRFSGSGSGTDFTLTISSLQPEDFATYYCSQSTHVPLTFGQGTKVEIKRTVAAPSVFIFPPSDEQLKSGTASVVCLLNNFYPREAKVQWKVDNALQSGNSQESVTEQDSKDSTYSLSSTLTLSKADYEKHKVYACEVTHQGLSSPVTKSFNRGEC
heavy: not shown
In the case of B1, the “average IC50, IL-8 mediated neutrophil chemotaxis” value (rabbit IL-8) is reported as 4 nM, the “average IC50, IL-8 mediated neutrophil chemotaxis” value (human monomeric IL-8) is reported as 1 nM and the “average IC50, human IL-8 mediated neutrophil chemotaxis” value [1] is reported as 1.5 nM.

B2: humanized 6G425 F(ab)-9 (humanized 6G4V11 Fab) (Fab, V domains shown)
VH: EVQLVQSGGGLVQPGGSLRLSCAASGYSFSSHYMHWVRQAPGKGLEWVGYIDPSNGETTYNQKFKGRFTLSRDNSKNTAYLQMNSLRAEDTAVYYCARGDYRYNGDWFFDVWGQGTLVTVSS
VL: DIQMTQSPSSLSASVGDRVTITCRSSQSLVHGIGNTYLHWYQQKPGKAPKLLIYKVSNRFSGVPSRFSGSGSGTDFTLTISSLQPEDFATYYCSQSTHVPLTFGQGTKVEIKR
B2 was tested, and the “IC50, IL-8 mediated neutrophil chemotaxis” value (human monomeric IL-8) was ~15 nM and the “IC50, IL-8 mediated neutrophil chemotaxis” value (rhesus IL-8) was ~22 nM.

B3: 6G4V11N35A Fab' modified with 40 kD linear PEG-maleimide (Fab, V domains shown)
VH: EVQLVQSGGGLVQPGGSLRLSCAASGYSFSSHYMHWVRQAPGKGLEWVGYIDPSNGETTYNQKFKGRFTLSRDNSKNTAYLQMNSLRAEDTAVYYCARGDYRYNGDWFFDVWGQGTLVTVSS
VL: DIQMTQSPSSLSASVGDRVTITCRSSQSLVHGIGATYLHWYQQKPGKAPKLLIYKVSNRFSGVPSRFSGSGSGTDFTLTISSLQPEDFATYYCSQSTHVPLTFGQGTKVEIKR
modifications: 40 kD linear methoxy-PEG-maleimide on the free cysteine in the hinge region
With B3 the “IC50, IL-8 mediated PMN chemotaxis” value [1] was 3.7 nM.

B4: full length 6G4V11N35A IgG1 (antibody, V domains shown, not shown: a dimerising Fc or GST)
VH: EVQLVQSGGGLVQPGGSLRLSCAASGYSFSSHYMHWVRQAPGKGLEWVGYIDPSNGETTYNQKFKGRFTLSRDNSKNTAYLQMNSLRAEDTAVYYCARGDYRYNGDWFFDVWGQGTLVTVSS
VL: DIQMTQSPSSLSASVGDRVTITCRSSQSLVHGIGATYLHWYQQKPGKAPKLLIYKVSNRFSGVPSRFSGSGSGTDFTLTISSLQPEDFATYYCSQSTHVPLTFGQGTKVEIKR
With B4 the “IC50, IL-8 mediated human neutrophil chemotaxis” value (rabbit IL-8) was 4 nM and the “IC50, IL-8 mediated human neutrophil chemotaxis” value [1] was 4 nM.

B5: humanized 6G425 F(ab)-8 (Fab, V domains shown)
VH: EVQLVESGGGLVQPGGSLRLSCAASGYSFSSHYMHWVKQAPGKGLEWVGYIDPSNGETTYNQKFKGRFTLSRDNSKNTAYLQMNSLRAEDTAVYYCARGDYRYNGDWFFDVWGQGTLVTVSS
VL: DIQMTQSPSSLSASVGDRVTITCRSSQSLVHGIGNTYLHWYQQKPGKAPKLLIYKVSNRFSGVPSRFSGSGSGTDFTLTISSLQPEDFATYYCSQSTHVPLTFGQGTKVEIKR
For B5, the “IC50, IL-8 mediated neutrophil chemotaxis” value [1] was 12 nM and the “IC50, IL-8 mediated neutrophil chemotaxis” value (rhesus IL-8) was 10 nM.

B6: 6G4V11N35A Fab (Fab, V domains shown)
VH: EVQLVQSGGGLVQPGGSLRLSCAASGYSFSSHYMHWVRQAPGKGLEWVGYIDPSNGETTYNQKFKGRFTLSRDNSKNTAYLQMNSLRAEDTAVYYCARGDYRYNGDWFFDVWGQGTLVTVSS
VL: DIQMTQSPSSLSASVGDRVTITCRSSQSLVHGIGATYLHWYQQKPGKAPKLLIYKVSNRFSGVPSRFSGSGSGTDFTLTISSLQPEDFATYYCSQSTHVPLTFGQGTKVEIKR
In the case of B6, the “average IC50, IL-8 mediated neutrophil chemotaxis” value (rabbit IL-8) is reported as 5 nM, the “average IC50, IL-8 mediated neutrophil chemotaxis” value (human monomeric IL-8) is reported as 1 nM and the “IC50, IL-8 mediated PMN chemotaxis” value [1] is reported as 0.8 nM. The “average IC50, human IL-8 mediated neutrophil chemotaxis” value [1] was 2.7 nM.

Source: US6468532 (Genentech, dated 2002)
